In patent US20220396632A1 (VERSEAU THERAPEUTICS, published 2022):
Substitutions are numbered along the chain they refer to.

T1: PSGL-1 endogenously expressed on HL-60 cells (UniProt Q14242 42-412)
T1 construct: whole, on cells
T1 sequence (looked up): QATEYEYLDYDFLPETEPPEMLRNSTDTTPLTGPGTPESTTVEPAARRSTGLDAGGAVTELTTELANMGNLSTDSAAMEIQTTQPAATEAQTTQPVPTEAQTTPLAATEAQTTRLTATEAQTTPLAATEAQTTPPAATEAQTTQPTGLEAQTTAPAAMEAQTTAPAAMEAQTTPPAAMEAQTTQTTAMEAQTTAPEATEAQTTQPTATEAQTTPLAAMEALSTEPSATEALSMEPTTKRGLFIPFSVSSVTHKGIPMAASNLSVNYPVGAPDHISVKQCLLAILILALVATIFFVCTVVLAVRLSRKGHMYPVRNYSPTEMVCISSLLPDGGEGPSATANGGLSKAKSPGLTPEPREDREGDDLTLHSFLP

T2: Recombinant human PSGL-1(ECD)-hFc1 (R&D Systems, Cat. 3345-PS) (human, UniProt Q14242 42-305)
T2 construct: Bought; Gln42-Val295 counted on AAC50061; also called PSGL-1-Fc; PSGL-1-hFc1 chimera; not shown: human IgG1 Fc, Pro100-Lys330
T2 sequence: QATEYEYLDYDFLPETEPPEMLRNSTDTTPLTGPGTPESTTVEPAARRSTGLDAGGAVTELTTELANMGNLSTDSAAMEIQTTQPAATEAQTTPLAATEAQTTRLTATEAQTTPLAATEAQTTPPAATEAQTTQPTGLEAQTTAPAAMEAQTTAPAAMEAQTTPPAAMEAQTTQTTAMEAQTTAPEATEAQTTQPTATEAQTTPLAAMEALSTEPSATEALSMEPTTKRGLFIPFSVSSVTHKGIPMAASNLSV

T3: Cynomolgus PSGL-1(ECD)-HIS (cynomolgus macaque)
T3 construct: also called Cyno PSGL1-His
T3 chain: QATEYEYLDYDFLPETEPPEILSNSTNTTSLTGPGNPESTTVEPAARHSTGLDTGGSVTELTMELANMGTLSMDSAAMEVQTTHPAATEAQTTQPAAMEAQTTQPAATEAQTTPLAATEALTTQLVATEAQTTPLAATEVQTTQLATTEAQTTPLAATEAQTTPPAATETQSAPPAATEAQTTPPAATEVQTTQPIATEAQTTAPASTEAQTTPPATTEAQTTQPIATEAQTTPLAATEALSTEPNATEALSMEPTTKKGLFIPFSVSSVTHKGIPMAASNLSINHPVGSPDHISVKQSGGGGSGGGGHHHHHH

T4: Biotin sY51 PSGL-1(42-62) peptide (human, sulfotyrosine at Y51; C-terminal Lys-biotin)
T4 construct: also called Y51(SO3) PSGL-1(42-62)
T4 peptide: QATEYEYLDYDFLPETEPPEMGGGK

T5: Scrambled Y46,48,51(SO3) PSGL-1(42-62) biotin peptide (sulfotyrosine at peptide positions 5, 7 and 10; C-terminal Lys-biotin)
T5 construct: also called scrambled sulfated peptide: biotin
T5 peptide: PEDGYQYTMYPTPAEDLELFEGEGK

T6: Biotin PSGL-1(42-62) peptide, unmodified (human, C-terminal Lys-biotin)
T6 construct: Residues 42-62 followed by GGGK-biotin; also called WT; wild-type
T6 peptide: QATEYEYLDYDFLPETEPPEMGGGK

B1: 20I15.001 (antibody, IgG4, V domains shown)
VH: EVQLVESGGGLVQPGGSLRLSCAASGFTFTDYYMSWVRQAPGKGLEWLGFIRNKANGYTTEYSASVKGRFTISRDNSKNSLYLQMNSLKTEDTAVYYCARTYLRRGYFDVWGQGTLVTVSS
VL: DIQLTQSPSTLSASVGDRVTITCRASKSVSTSGYSYMHWFQQKPGKAPKLLIYLASNLESGVPSRFSGSGSGTEFTLTISSLQPDDFATYYCQHSRELPLTFGQGTKLEIK
notes: Humanised; also called 20115.001
B2: 20I15.004 (antibody, IgG4, V domains shown)
VH: B1 VH with Q3K, N56Q, K78Q
VL: B1 VL
notes: Humanised
B3: 20I15.006 (antibody, IgG4, V domains shown)
VH: B1 VH with N56S
VL: B1 VL with Q3V, E74D
notes: Humanised
B4: 20I15.005 (antibody, IgG4, V domains shown)
VH: B1 VH
VL: B1 VL with Q3V, E74D
notes: Humanised
B5: 20I15.007 (antibody, IgG4, V domains shown)
VH: B1 VH with Q3K, K78Q
VL: B1 VL with Q3V, E74D
notes: Humanised
B6: 20I15.002 (antibody, IgG4, V domains shown)
VH: B1 VH with N56S
VL: B1 VL
notes: Humanised
B7: 20I15.008 (antibody, IgG4, V domains shown)
VH: B1 VH with Q3K, N56Q, K78Q
VL: B1 VL with Q3V, E74D
notes: Humanised
B8: 20I15.003 (antibody, IgG4, V domains shown)
VH: B1 VH with Q3K, K78Q
VL: B1 VL
notes: Humanised
B9: 19L04.002 (antibody, IgG4, V domains shown)
VH: QIQLVQSGSELKKPGASVKVSCKASGYTFTTYGMSWVRQAPGQGLKWMGWINTYSGVPTYADDFKGRFVFSLDTSVSTAYLQISSLKAEDTAVYFCARHYYGSHYFDYWGQGTLVTVSS
VL: DIVMTQSPDSLAVSLGERATIRCKSSQSLLSSSNQKNYLAWYQQKPGQPPKLLVYFASTRESGVPDRFSGSGSGTDFTLTISSLQAEDVAVYYCQQHYFSPLTFGQGTKLEIK
notes: Humanised
B10: 19L04.008 (antibody, IgG4, V domains shown)
VH: QIQLVQSGAEVKKPGASVKVSCKASGYTFTTYGMSWVRQAPGQGLKWMGWINTYSGVPTYADDFKGRFTFTLDTSISTAYMELSRLRSDDTAVYFCARHYYGSHYFDYWGQGTLVTVSS
VL: B9 VL with I21L, D66V, Y93F
notes: Humanised
B11: 19L04.006 (antibody, IgG4, V domains shown)
VH: B9 VH
VL: B9 VL with I21L, D66V, Y93F
notes: Humanised
B12: 19L04.004 (antibody, IgG4, V domains shown)
VH: B10 VH
VL: B9 VL
notes: Humanised
B13: 18L13 (antibody, V domains shown)
VH: EVQLQQSGAELVRPGASVKLSCTASGFNIKDDFMHWVKQRPEQGLEWIGRIDPASGKTEYVPKFQDKATLTADTSSNTAYLQLSSLTSEDTAVYYCARRIAYWGQGTLVTVSA
VL: DVVMTQTPLTLSVTIGQPASISCKSSQSLLHSNGKTYLNWLLQRPGQSPKLLIYLVSKLESGLPDRFSGSGSGTDFSLKISRVEAEDLGVYYCLQTTHFPQTFGGGTKLEIK
notes: Mouse hybridoma mAb; only variable domains given

Target: T1, PSGL-1 endogenously expressed on HL-60 …
Test: flow cytometry on HL-60 cells
Description: (§1) A typical flow cytometry assay was performed by resuspending HL-60 cells in FACS buffer (5% FBS and 0.05% Sodium Azide in PBS, pH 7.2) on ice, pelleting cells by centrifugation at 500×g for 3 min, washing cells with FACS buffer, and then blocking Fc receptors on the cells with Fc block (human TruStain FcX™, BioLegend Cat. #422302) on ice for 10 min. After washing, 50,000 cells/50 ul in FACS buffer was added to each well of a 96-well round bottomed plate (Costar, Cat. #3797), and 50 ul of serially diluted (0.06 nM-1.0 uM) test or isotype control antibody was added into duplicate wells. The plate was covered and incubated on ice for 1 h. After washing, Phycoerythrin (PE) conjugated anti-human IgG secondary antibody (Abcam; Cat. #ab99825) was added to each well and the plate incubated in the dark on ice for 30 min. After washing, the cells were fixed (1% paraformaldhyde).

Compared with B1, B2 is 2-fold higher in EC50: 0.5 nM for the first, 1 nM for the second. The first is the more potent here.

First: B3
Second: B4
The EC50 of the first is 1.6-fold lower: 0.8 nM for the first, 1.3 nM for the second.

B5 and B6 are within 1.5-fold of each other in EC50: 0.8 nM for the first, 1 nM for the second.

B7 and B8 are the same in EC50: 1.6 nM for the first, 1.6 nM for the second.

B9 and B10 are within 1.5-fold of each other in EC50: 2.5 nM for the first, 2.9 nM for the second.

First: B11
Second: B12
The EC50 of the first is 2.5-fold lower: 3.5 nM for the first, 8.9 nM for the second. The first is the more potent here.

Target: T2, Recombinant human PSGL-1(ECD)-hFc1 (R&D …)
Test: blocking ELISA vs L-selectin-Fc
Description: (§2) A typical selectin blocking ELISA assay involved coating high binding half-well plates (Corning, Cat. #3690) with 2.5 ug/mL/25 ul per well of recombinant PSGL-1-Fc protein (R&D Systems, Cat #3345-PS) in PBS, pH 7.4, overnight at 4° C. […] Antibody (test and controls) was serially diluted (25 ul/well) in duplicate in assay buffer (3% BSA in wash buffer) into appropriate wells and the plate incubated for 45 min at 37° C. […] The plate was washed ×3 and HRP-conjugated streptavidin was added in assay buffer [25 ul per well; (Jackson Immunoresearch, Cat. #016-030-084)] and the plate incubated for 45 min at 37° C. […] For each antibody, an IC50 value was determined from sigmoidal fitted titration curves.

In the case of B13, the “% max Block” value is reported as 0%.

Target: T2, Recombinant human PSGL-1(ECD)-hFc1 (R&D …)
Test: blocking ELISA vs P-selectin-Fc
Description: as §2

For B13, the “% max Block” value was 0%.

Target: T3, Cynomolgus PSGL-1(ECD)-HIS
Test: ELISA, plate cyno PSGL-1(ECD)-HIS
Description: Antibody binding to plate-immobilized cyno PSGL-1(ECD) was determined either at one concentration (20 nM) or by generating full antibody binding curves (0.003-200 nM). A typical ELISA was performed by overnight coating at 4° C. with 3 ug/mL/25 ul per well of recombinant cyno PSGL-1(ECD) protein in PBS, pH 7.4, in high binding half-well plates (Corning Cat. #3690). […] Anti-PSGL-1 IgG in assay buffer (blocking buffer containing 0.05% tween 20) was added into test and control wells (20 nM/25 ul/well) and the plate incubated for 45 min at 37° C. […] The plate was incubated for 45 min at 37° C., and mAb bound to plate-immobilized target determined at A450 nm using HRP substrate (3,3′,5,5′-tetramethylbenzidine (TMB)). For each antibody, duplicate values were averaged and assay background subtracted.

B13 gave an EC50 of 0.76 nM.

Target: T2, Recombinant human PSGL-1(ECD)-hFc1 (R&D …)
Test: blocking ELISA vs VISTA-Fc, pH 6.0

In the case of B13, the “% max Block” value is reported as 0%.

Target: T4, Biotin sY51 PSGL-1(42-62) peptide
Test: ELISA, immobilized biotin peptide
Summary of the method: (§3)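 In this ELISA, half-well high binding plates (Corning Cat. #3690) received 3 ug/mL/25 ul per well of biotin-tagged PSGL-1 peptides covering residues 42 to 62, diluted in PBS, pH 7.4, and coated overnight at 4° C. Duplicate readings for each antibody were averaged and the average assay background was subtracted. PSGL-1 protein or peptide was the positive control.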

In the case of B13, the EC50 is reported as 0.914 nM.

Target: T5, Scrambled Y46,48,51(SO3) PSGL-1(42-62) …
Test: ELISA, immobilized biotin peptide
Summary of the method: as §3

B13 was tested, and the EC50 was 2.63 nM.

Target: T6, Biotin PSGL-1(42-62) peptide, unmodified
Test: ELISA, immobilized biotin peptide
Summary of the method: as §3

B13 showed an EC50 of 0.764 nM.

Target: T1, PSGL-1 endogenously expressed on HL-60 …
Test: flow cytometry on HL-60 cells; against parent 20I15
Description: as §1

Compared with B1, B2 is higher in “HL-60 EC50 (normalized)” value: 0.4 fold for the first, 0.7 fold for the second.

First: B3
Second: B4
The “HL-60 EC50 (normalized)” value of the first is lower: 0.6 fold for the first, 0.9 fold for the second.

Compared with B5, B6 is higher in “HL-60 EC50 (normalized)” value: 0.6 fold for the first, 0.7 fold for the second.

B7 and B8 are the same in “HL-60 EC50 (normalized)” value: 1.1 fold for the first, 1.1 fold for the second.

Target: T1, PSGL-1 endogenously expressed on HL-60 …
Test: flow cytometry on HL-60 cells; against parent 19L04
Description: as §1

Compared with B9, B10 is higher in “HL-60 EC50 (normalized)” value: 1.3 fold for the first, 1.5 fold for the second.

Compared with B11, B12 is higher in “HL-60 EC50 (normalized)” value: 1.8 fold for the first, 4.5 fold for the second.
